Reference: patent publication US20130344073A1

Experiments:
[1] = molecular target: human MASP-1 (human) (UniProt P48740); assay: cell-based or functional assay
[2] = molecular target: human MASP-2 (human) (UniProt O00187); assay: cell-based or functional assay
Chain of human MASP-2 (human) (O00187 16-686): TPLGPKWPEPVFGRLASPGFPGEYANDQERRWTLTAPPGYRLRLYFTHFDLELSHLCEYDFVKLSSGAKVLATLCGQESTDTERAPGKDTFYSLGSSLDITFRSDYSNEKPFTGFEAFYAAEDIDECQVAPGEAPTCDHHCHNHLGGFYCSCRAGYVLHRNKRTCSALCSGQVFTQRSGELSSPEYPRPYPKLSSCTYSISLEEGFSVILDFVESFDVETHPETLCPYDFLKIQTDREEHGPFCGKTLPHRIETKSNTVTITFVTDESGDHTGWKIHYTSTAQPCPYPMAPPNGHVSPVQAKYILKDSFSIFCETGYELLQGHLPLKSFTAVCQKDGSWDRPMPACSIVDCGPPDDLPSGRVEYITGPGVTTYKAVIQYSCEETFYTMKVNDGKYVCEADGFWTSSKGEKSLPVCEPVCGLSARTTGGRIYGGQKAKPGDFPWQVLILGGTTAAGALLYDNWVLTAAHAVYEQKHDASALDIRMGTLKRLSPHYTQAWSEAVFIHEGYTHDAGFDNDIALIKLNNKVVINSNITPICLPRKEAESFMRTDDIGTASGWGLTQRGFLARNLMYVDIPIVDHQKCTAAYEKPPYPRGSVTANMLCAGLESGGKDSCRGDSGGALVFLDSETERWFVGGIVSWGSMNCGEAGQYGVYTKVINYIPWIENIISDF

Chain of human MASP-1 (human) (P48740 other isoform, or with tags, fused parts or gaps): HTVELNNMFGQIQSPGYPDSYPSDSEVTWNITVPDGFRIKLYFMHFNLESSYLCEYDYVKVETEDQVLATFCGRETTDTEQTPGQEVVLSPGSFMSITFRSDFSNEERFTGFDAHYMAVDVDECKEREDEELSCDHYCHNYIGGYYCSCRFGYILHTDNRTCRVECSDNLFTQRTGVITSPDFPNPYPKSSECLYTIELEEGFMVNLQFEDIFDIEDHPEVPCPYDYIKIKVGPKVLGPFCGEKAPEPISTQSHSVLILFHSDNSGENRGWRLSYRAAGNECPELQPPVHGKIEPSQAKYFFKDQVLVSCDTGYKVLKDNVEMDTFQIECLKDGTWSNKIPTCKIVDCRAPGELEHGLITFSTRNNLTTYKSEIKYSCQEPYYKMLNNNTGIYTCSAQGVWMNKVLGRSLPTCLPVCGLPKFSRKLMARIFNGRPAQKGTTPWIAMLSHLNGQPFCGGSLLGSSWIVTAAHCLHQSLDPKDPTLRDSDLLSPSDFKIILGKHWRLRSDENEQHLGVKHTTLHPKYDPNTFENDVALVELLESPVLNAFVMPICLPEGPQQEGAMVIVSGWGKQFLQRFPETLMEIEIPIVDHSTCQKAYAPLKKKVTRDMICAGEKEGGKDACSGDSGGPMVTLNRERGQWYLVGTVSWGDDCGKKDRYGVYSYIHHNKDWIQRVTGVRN

Row | Substance | C3b deposition from 1% normal human serum on mannan (IC50) [1] | C3b deposition from 1% normal human serum on mannan (IC50) [2]
1 | SGMI-1Fc, mature polypeptide fusion comprising SGMI-1, linker and human IgG1-Fc (Fc fusion) | 27 nM | –
2 | SGMI-2Fc, mature polypeptide fusion comprising SGMI-2, linker and human IgG1-Fc (Fc fusion) | – | 300 nM
